Reference: patent publication US20240182536A1 (MURAL ONCOLOGY, published 2024)

T1: interleukin 18 binding protein (IL-18BP) (UniProt O95998 31-194)
T1 sequence (looked up): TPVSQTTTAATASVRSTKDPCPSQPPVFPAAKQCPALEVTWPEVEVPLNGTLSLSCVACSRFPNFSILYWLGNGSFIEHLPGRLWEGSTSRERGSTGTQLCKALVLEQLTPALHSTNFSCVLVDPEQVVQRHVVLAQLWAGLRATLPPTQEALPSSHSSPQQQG

T2: IL-18 receptors on HEK-Blue IL-18 reporter cells (UniProt Q13478 19-541; O95256 20-599, limits assumed)
T2 sequence (looked up) 1: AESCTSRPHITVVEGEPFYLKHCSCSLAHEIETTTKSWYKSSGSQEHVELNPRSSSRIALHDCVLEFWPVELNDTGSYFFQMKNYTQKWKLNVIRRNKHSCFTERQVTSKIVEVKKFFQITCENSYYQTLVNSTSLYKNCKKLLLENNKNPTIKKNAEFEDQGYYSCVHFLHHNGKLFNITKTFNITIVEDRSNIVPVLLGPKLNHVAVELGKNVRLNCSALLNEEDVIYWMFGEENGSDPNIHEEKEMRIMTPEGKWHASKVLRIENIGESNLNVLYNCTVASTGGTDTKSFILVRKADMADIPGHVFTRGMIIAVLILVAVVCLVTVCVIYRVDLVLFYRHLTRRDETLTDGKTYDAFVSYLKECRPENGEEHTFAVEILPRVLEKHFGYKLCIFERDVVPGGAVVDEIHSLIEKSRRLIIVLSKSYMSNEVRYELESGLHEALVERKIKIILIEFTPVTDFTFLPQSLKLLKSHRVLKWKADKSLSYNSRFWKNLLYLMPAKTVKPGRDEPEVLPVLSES
T2 sequence (looked up) 2: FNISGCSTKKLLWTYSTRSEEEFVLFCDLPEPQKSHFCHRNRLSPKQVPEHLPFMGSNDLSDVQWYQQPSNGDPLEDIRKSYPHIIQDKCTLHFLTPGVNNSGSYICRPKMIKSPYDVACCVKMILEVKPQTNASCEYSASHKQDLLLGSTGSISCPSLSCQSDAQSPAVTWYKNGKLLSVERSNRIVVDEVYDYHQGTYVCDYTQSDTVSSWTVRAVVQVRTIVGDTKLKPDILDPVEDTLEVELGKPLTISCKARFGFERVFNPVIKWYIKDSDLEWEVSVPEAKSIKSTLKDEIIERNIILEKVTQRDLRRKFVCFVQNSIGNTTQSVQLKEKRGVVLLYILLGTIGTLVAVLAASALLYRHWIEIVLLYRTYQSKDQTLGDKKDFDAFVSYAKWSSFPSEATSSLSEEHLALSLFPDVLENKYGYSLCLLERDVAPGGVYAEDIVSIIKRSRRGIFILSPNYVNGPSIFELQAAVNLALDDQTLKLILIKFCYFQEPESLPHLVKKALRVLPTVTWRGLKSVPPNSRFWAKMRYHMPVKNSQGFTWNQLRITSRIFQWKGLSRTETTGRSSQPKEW


What was measured:
[1] = target: T1, interleukin 18 binding protein (IL-18BP); assay: cell-based or functional assay
[2] = target: T2, IL-18 receptors on HEK-Blue IL-18 …; assay: cell-based or functional assay

| Binder | HEK-Blue activity, +100 nM BP, DF-10000 [1] | HEK-Blue activity, +100 nM BP, DF-100,000 [1] | HEK-Blue activity, +100 nM BP, DF-1,000,000 [1] | Ratio (-BP/+BP), DF-10000 [1] | Ratio (-BP/+BP), DF-100,000 [1] | Ratio (-BP/+BP), DF-1,000,000 [1] | HEK-Blue activity, No BP, DF-10000 [2] | HEK-Blue activity, No BP, DF-100,000 [2] | HEK-Blue activity, No BP, DF-1,000,000 [2] |
| --- | --- | --- | --- | --- | --- | --- | --- | --- | --- |
| IL-18 variant T34N, S36Y, D40H, N41T, K53G, S55Y (ligand) YFGKLESKLSVIRNLNDQVLFIDQGNRPLFEDMNDYDMRHTAPRTIFIISMYGDYQPRGMAVTISVKSEKISTLSSENKIISFKEMNPPDNIKDTKSDIIFFQRSVPGHDNKMQFESSSYEGYFLASEKERDLFKLILKKEDELGDRSIMFTVQNED | 0.11 | 0.09 | 0.09 | 1.08 | 1.02 | 0.97 | 0.12 | 0.1 | 0.09 |
| IL-18 variant T34N, S36Y, D37E, D40Q, N41Q, K53D, S55D (ligand) YFGKLESKLSVIRNLNDQVLFIDQGNRPLFEDMNDYEMRQQAPRTIFIISMYDDDQPRGMAVTISVKSEKISTLSSENKIISFKEMNPPDNIKDTKSDIIFFQRSVPGHDNKMQFESSSYEGYFLASEKERDLFKLILKKEDELGDRSIMFTVQNED | 0.1 | 0.1 | 0.09 | 1.11 | 0.96 | 1 | 0.11 | 0.09 | 0.09 |
| IL-18 variant K53H, S55H, N87D, H109I (ligand) YFGKLESKLSVIRNLNDQVLFIDQGNRPLFEDMTDSDMRDNAPRTIFIISMYHDHQPRGMAVTISVKSEKISTLSSENKIISFKEMDPPDNIKDTKSDIIFFQRSVPGIDNKMQFESSSYEGYFLASEKERDLFKLILKKEDELGDRSIMFTVQNED | 0.1 | 0.1 | 0.1 | 1.1 | 0.96 | 0.88 | 0.11 | 0.1 | 0.09 |
| IL-18 variant S36Q, D40T, K53P, S55L (ligand) YFGKLESKLSVIRNLNDQVLFIDQGNRPLFEDMTDQDMRTNAPRTIFIISMYPDLQPRGMAVTISVKSEKISTLSSENKIISFKEMNPPDNIKDTKSDIIFFQRSVPGHDNKMQFESSSYEGYFLASEKERDLFKLILKKEDELGDRSIMFTVQNED | 0.09 | 0.09 | 0.09 | 1.09 | 1.44 | 0.9 | 0.09 | 0.13 | 0.08 |
| IL-18 variant K8R, L9G, S10C, K53G, S55A, R104G (ligand) YFGKLESRGCVIRNLNDQVLFIDQGNRPLFEDMTDSDMRDNAPRTIFIISMYGDAQPRGMAVTISVKSEKISTLSSENKIISFKEMNPPDNIKDTKSDIIFFQGSVPGHDNKMQFESSSYEGYFLASEKERDLFKLILKKEDELGDRSIMFTVQNED | 0.12 | 0.14 | 0.1 | 0.88 | 0.92 | 1.03 | 0.1 | 0.13 | 0.1 |
| IL-18 variant T34S, S36L, D37E, D40Y, N41M, K53T, S55K, P107K, H109Q (ligand) YFGKLESKLSVIRNLNDQVLFIDQGNRPLFEDMSDLEMRYMAPRTIFIISMYTDKQPRGMAVTISVKSEKISTLSSENKIISFKEMNPPDNIKDTKSDIIFFQRSVKGQDNKMQFESSSYEGYFLASEKERDLFKLILKKEDELGDRSIMFTVQNED | 0.1 | 0.1 | 0.09 | 1.11 | 0.98 | 0.98 | 0.11 | 0.1 | 0.09 |
| IL-18 variant T34E, S36P, D40A, N41G, K53T, S55R (ligand) YFGKLESKLSVIRNLNDQVLFIDQGNRPLFEDMEDPDMRAGAPRTIFIISMYTDRQPRGMAVTISVKSEKISTLSSENKIISFKEMNPPDNIKDTKSDIIFFQRSVPGHDNKMQFESSSYEGYFLASEKERDLFKLILKKEDELGDRSIMFTVQNED | 0.1 | 0.09 | 0.09 | 0.98 | 1.01 | 0.96 | 0.09 | 0.1 | 0.09 |
| IL-18 variant K53H, S55Y (ligand) YFGKLESKLSVIRNLNDQVLFIDQGNRPLFEDMTDSDMRDNAPRTIFIISMYHDYQPRGMAVTISVKSEKISTLSSENKIISFKEMNPPDNIKDTKSDIIFFQRSVPGHDNKMQFESSSYEGYFLASEKERDLFKLILKKEDELGDRSIMFTVQNED | 0.1 | 0.1 | 0.11 | 0.91 | 0.99 | 0.8 | 0.09 | 0.09 | 0.09 |
| IL-18 variant K53D, S55L (ligand) YFGKLESKLSVIRNLNDQVLFIDQGNRPLFEDMTDSDMRDNAPRTIFIISMYDDLQPRGMAVTISVKSEKISTLSSENKIISFKEMNPPDNIKDTKSDIIFFQRSVPGHDNKMQFESSSYEGYFLASEKERDLFKLILKKEDELGDRSIMFTVQNED | 0.1 | 0.09 | 0.09 | 1.02 | 1.03 | 1.01 | 0.11 | 0.09 | 0.09 |
| IL-18 variant L15I, K53H, S55M (ligand) YFGKLESKLSVIRNINDQVLFIDQGNRPLFEDMTDSDMRDNAPRTIFIISMYHDMQPRGMAVTISVKSEKISTLSSENKIISFKEMNPPDNIKDTKSDIIFFQRSVPGHDNKMQFESSSYEGYFLASEKERDLFKLILKKEDELGDRSIMFTVQNED | 0.12 | 0.1 | 0.08 | 0.9 | 0.99 | 1.02 | 0.11 | 0.1 | 0.09 |
| IL-18 variant K53G, S55I, R104K, P107Y (ligand) YFGKLESKLSVIRNLNDQVLFIDQGNRPLFEDMTDSDMRDNAPRTIFIISMYGDIQPRGMAVTISVKSEKISTLSSENKIISFKEMNPPDNIKDTKSDIIFFQKSVYGHDNKMQFESSSYEGYFLASEKERDLFKLILKKEDELGDRSIMFTVQNED | 0.11 | 0.09 | 0.09 | 0.99 | 1 | 0.95 | 0.1 | 0.09 | 0.09 |
| IL-18 variant S36E, D37E, D40V, N41S, K53Y, S55V, H109Y (ligand) YFGKLESKLSVIRNLNDQVLFIDQGNRPLFEDMTDEEMRVSAPRTIFIISMYYDVQPRGMAVTISVKSEKISTLSSENKIISFKEMNPPDNIKDTKSDIIFFQRSVPGYDNKMQFESSSYEGYFLASEKERDLFKLILKKEDELGDRSIMFTVQNED | 0.09 | 0.1 | 0.1 | 1.03 | 0.92 | 0.89 | 0.09 | 0.09 | 0.09 |
